Results as given in the supplement of paper PMC12764529.
± gives the half width of the 95% confidence interval.

Assays:
[1] = folding stability dG unfold (combined trypsin and chymotrypsin); higher = more stable
Outline: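 Sequencing followed digestion of designed mini-proteins with trypsin and chymotrypsin, each at 11 concentrations in threefold dilutions together with a no-protease condition. The mini-proteins were under 80 residues, had no cysteine, sat in a PA-tagged cDNA display construct, and were kept only if AlphaFold2 dimer inter-PAE was above 15. From the counts, Bayesian fitting gave K50, and unfolding free energy was derived against a sequence-predicted unfolded-state K50 and a shared folded-state K50, per protease or combined.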

[2] = folding stability dG unfold from trypsin proteolysis; higher = more stable
Experimental: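 Folding stability of de novo designed mini-proteins (<80 aa, no Cys; designed by TrROS, TrMRF, ProteinMPNN and the joint model) was measured by cDNA display proteolysis with trypsin and chymotrypsin. Each protease was used at 11 concentrations in a threefold dilution series plus a no-protease condition. K50 was inferred by Bayesian fitting of sequencing counts, and dG unfold was derived against a sequence-predicted unfolded-state K50 (Tsuboyama et al. method). Sequences shown include variable-length N-terminal GS-type padding (SAGGSAGG...) inside a display construct carrying a PA tag. Rows were kept only if the AF2 dimer inter-PAE was >15, to exclude likely homo-oligomers.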

Sequence | folding stability dG unfold [1] [kcal/mol] | folding stability dG unfold [2] [kcal/mol]
SAGGSAGGSAGGTKEFPIWFGGEPVKVTVEPDPDGQPKIEIEEPGGAEITIPPGGPLQFSAGGSAGGSAGGS [r10_989_TrROS] | 0.343 ± 0.21 | 0.934 ± 0.061
SAGGSAGGSAGGTKVIPFDSVEEILEEVKKDPNKPRYIRMPGAWIKINKPGDITEIEPWPSAGGSAGGSAGG [r7_532_TrROS] | < -1 | -0.655 ± 0.46
SAGGSAGGSAGGVKPGEVLPDGRLLVTWDEETNELTVYFEDTETITLKAPPPVVVSPEDLSAGGSAGGSAGG [r7_522_TrROS_Hall] | -0.614 ± 0.46 | 0.0426 ± 0.11
SAGGSAGGSAGKEIHIPFPDGDTPEQAKKFAKEIADMLAQKNGKPIKVDKIEIIPPEQWPSAGGSAGGSAGG [r17_68_TrROS] | -0.804 ± 0.34 | -0.546 ± 0.11
SAGGSAGGSAGKKRKIEINIIVPPEGAKQMAKMIKDELAQRNRDVDIEIKIIPVPPGQPLSAGGSAGGSAGG [r11_973_TrROS] | < -1 | 0.434 ± 0.16
SAGGSAGGSAGMKPGQEVRVEVPVPNNGKKIKIPVYVPPGYTPKQAKNMAIMMAKMIREMSAGGSAGGSAGG [r11_355_TrROS] | 0.0699 ± 0.096 | 0.516 ± 0.072
SAGGSAGGSAGMKPGQVVIYKIKIPLPDDGEPLFEIPIMYPVGMPEEQAKDFAKEFADKFSAGGSAGGSAGG [r11_516_TrROS] | -0.586 ± 0.24 | -0.41 ± 0.12
SAGGSAGGSAGMLLLTFPERGISYEIKLGDKEEEREADPEEVEKLIAELPNYEVKEVELLSAGGSAGGSAGG [r11_57_JUSTAS] | 0.288 ± 0.26 | 0.559 ± 0.1
SAGGSAGGSAGMPLPIKTLTEVSTVEGVGITLTALDNGLVIVEKSDGKVTVIPLSAYEAQSAGGSAGGSAGG [r11_254_JUSTAS] | -0.0335 ± 0.073 | 0.643 ± 0.04
SAGGSAGGSAGMSPNIVSYETVESDKNGNIIKKTTYLYSDNTIITETFSPKKKKKIQTFSKESAGGSAGGSA [r18_302_JUSTAS] | < -1 | -0.434 ± 0.29
SAGGSAGGSAGMYTVSPVGSGGGGSMIRIENPETGEVIELDFDSEEEAAAAAEELKEKLASAGGSAGGSAGG [r11_848_JUSTAS] | -0.22 ± 0.17 | 0.343 ± 0.043
SAGGSAGGSAGNIAERLQEAFPDYGIEVTDITPNGSITVTSRGPPGHRKKIQKAVKELLNSAGGSAGGSAGG [r11_418_TrROS] | < -1 | -0.879 ± 0.57
SAGGSAGGSAGPGEPVPIRLKIYGPNGQPHTHPFPVKNPEEFKDNLRFPVPNGWAVEIEYSAGGSAGGSAGG [r11_671_TrROS] | < -1 | -0.719 ± 0.37
SAGGSAGGSAGPVISKSEVESTEIIFSYNNKHEITVKKVKKTITTTIPPVKLKPDGTPILSAGGSAGGSAGG [r11_558_JUSTAS] | -0.349 ± 0.54 | -0.803 ± 0.51
SAGGSAGGSAGSKEKLEEEAKAKGRPVTPLPDGTLKVETVDPNKGTASTTVIDPETAEKLSAGGSAGGSAGG [r11_994_JUSTAS] | < -1 | -0.626 ± 0.058
SAGGSAGGSAGSMPIVLRAEFPSNDETVEIPVTSPEEAERVAQELAAQPDWPLEKVDFGGSAGGSAGGSAGG [r11_951_JUSTAS] | < -1 | 0.414 ± 0.064
SAGGSAGGSAGSPPGSTTLRAETVVVELPAAEAYTPEGERVELPRVIVEETVERELEAGLSAGGSAGGSAGG [r11_907_JUSTAS] | -0.216 ± 0.31 | 0.427 ± 0.043
SAGGSAGGSAGSVEEIESPDGTKTLVTKEPDSIKTTVTKPGGIPTLVTIDSKTGKWSVSLSAGGSAGGSAGG [r11_590_JUSTAS] | -0.714 ± 0.63 | -0.595 ± 0.24
SAGGSAGGSAGSYEFDPSKSALVRVTLQPPDGVPVEIEIPVEELEEILPGDRPVLSIEVSSAGGSAGGSAGG [r17_449_JUSTAS] | -0.838 ± 0.51 | 0.0674 ± 0.14
SAGGSAGGSAGTKEYEVKVGDKIVRISETPDSRVIDYPETDFKKEFSSDFPGKPIAEYLASAGGSAGGSAGG [r11_648_TrMRF] | < -1 | -0.781 ± 0.49
SAGGSAGGSAGTVIYIDPETDMARVLVPDADGVLVDERAVPPDQLPDVLSQGNFTVVPAPSAGGSAGGSAGG [r11_159_TrMRF] | -0.943 ± 0.84 | -0.327 ± 0.36
SAGGSAGGSAGVELPPSLSAEVTPVPGKPGLSRVTITLPDGVVRTIDLERKGDKWIVNPRSAGGSAGGSAGG [r11_177_JUSTAS] | < -1 | -0.0818 ± 0.14
SAGGSAGGSAMILVPKEKLEEAAKKLNLNIVEVKPVPPGIEVAEVKVEGSEEQKKAFLEALLSAGGSAGGSA [r18_175_JUSTAS] | 0.0149 ± 0.2 | 0.216 ± 0.082
SAGGSAGGSAMKPERIELPGNEVAVIEKVPEAGVYIVTFKKPEGDEPLGEKIFKPDEIDLKLESAGGSAGGS [r20_190_JUSTAS] | < -1 | -1.17 ± 0.24
